Patent publication US20190360025A1

Assays:
[1] = molecular target: interleukin 6 (IL-6), R&D Systems 206-IL-010 (UniProt P05231); assay: c-PLA, buffer; IL-6 1.00E-08 M
[2] = molecular target: interleukin 6 (IL-6), R&D Systems 206-IL-010 (UniProt P05231); assay: c-PLA, buffer; IL-6 1.00E-09 M
[3] = molecular target: interleukin 6 (IL-6), R&D Systems 206-IL-010 (UniProt P05231); assay: c-PLA, buffer; IL-6 1.00E-10 M
[4] = molecular target: interleukin 6 (IL-6), R&D Systems 206-IL-010 (UniProt P05231); assay: c-PLA, buffer; IL-6 1.00E-11 M
[5] = molecular target: interleukin 6 (IL-6), R&D Systems 206-IL-010 (UniProt P05231); assay: c-PLA, buffer; IL-6 1.00E-12 M
[6] = molecular target: interleukin 6 (IL-6), R&D Systems 206-IL-010 (UniProt P05231); assay: c-PLA, buffer; IL-6 1.00E-13 M
[7] = molecular target: interleukin 6 (IL-6), R&D Systems 206-IL-010 (UniProt P05231); assay: c-PLA, buffer; IL-6 1.00E-14 M
[8] = molecular target: interleukin 6 (IL-6), R&D Systems 206-IL-010 (UniProt P05231); assay: t-PLA, buffer; IL-6 1.00E-08 M
[9] = molecular target: interleukin 6 (IL-6), R&D Systems 206-IL-010 (UniProt P05231); assay: t-PLA, buffer; IL-6 1.00E-09 M
[10] = molecular target: interleukin 6 (IL-6), R&D Systems 206-IL-010 (UniProt P05231); assay: t-PLA, buffer; IL-6 1.00E-10 M
[11] = molecular target: interleukin 6 (IL-6), R&D Systems 206-IL-010 (UniProt P05231); assay: t-PLA, buffer; IL-6 1.00E-11 M
[12] = molecular target: interleukin 6 (IL-6), R&D Systems 206-IL-010 (UniProt P05231); assay: t-PLA, buffer; IL-6 1.00E-12 M
[13] = molecular target: interleukin 6 (IL-6), R&D Systems 206-IL-010 (UniProt P05231); assay: t-PLA, buffer; IL-6 1.00E-13 M
[14] = molecular target: interleukin 6 (IL-6), R&D Systems 206-IL-010 (UniProt P05231); assay: t-PLA, buffer; IL-6 1.00E-14 M
[15] = molecular target: interleukin 6 (IL-6), R&D Systems 206-IL-010 (UniProt P05231); assay: SPR (Biacore T200), 1:1 global fit
[16] = molecular target: interleukin 6 (IL-6), R&D Systems 206-IL-010 (UniProt P05231); assay: SPR, isoaffinity graph
[17] = molecular target: interleukin 6 (IL-6), R&D Systems 206-IL-010 (UniProt P05231); assay: SPR (Biacore T200), biotinylated antibody on CAP chip, 1:1 fit
[18] = molecular target: interleukin 6 (IL-6), R&D Systems 206-IL-010 (UniProt P05231); assay: BLI (Octet RED), antibody on protein G sensors, 1:1 global fit
[19] = molecular target: interleukin 6 (IL-6), R&D Systems 206-IL-010 (UniProt P05231); assay: SPR, off-rate given by the software, beyond the sensitivity range of the instrument
[20] = molecular target: interleukin 6 (IL-6), R&D Systems 206-IL-010 (UniProt P05231); assay: SPR, value from the software's off-rate, beyond the sensitivity range of the instrument

UniProt P05231, sequence (P05231 30-212 limits assumed): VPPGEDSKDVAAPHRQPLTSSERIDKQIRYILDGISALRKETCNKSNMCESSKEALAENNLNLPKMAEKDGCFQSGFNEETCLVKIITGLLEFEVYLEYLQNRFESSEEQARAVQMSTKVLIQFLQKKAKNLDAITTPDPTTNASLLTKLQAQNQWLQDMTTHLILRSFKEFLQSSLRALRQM

Counts [1]: 137000
SBR [1]: 7540
Counts [2]: 312000
SBR [2]: 17200
Counts [3]: 30800
SBR [3]: 1700
Counts [4]: 1980
SBR [4]: 109
Counts [5]: 141
SBR [5]: 7.8
Counts [6]: 84.3
SBR [6]: 4.6
Counts [7]: 55.2
SBR [7]: 3
Counts [8]: 2.05e+09
SBR [8]: 1410
Counts [9]: 3.87e+09
SBR [9]: 2670
Counts [10]: 3.88e+08
SBR [10]: 267
Counts [11]: 3.72e+07
SBR [11]: 26
Counts [12]: 1.16e+07
SBR [12]: 8
Counts [13]: 2.68e+06
SBR [13]: 1.8
Counts [14]: 3.03e+06
SBR [14]: 2.1
Kd [15]: < 4.3 pM
koff [15]: < 1e-05 s⁻¹
kon [15]: 2.33e+06 M⁻¹ s⁻¹
Kd [16]: < 5 pM
Kd [17]: < 4.3 pM
koff [17]: < 1e-05 s⁻¹
kon [17]: 2.3e+06 M⁻¹ s⁻¹
Kd [18]: < 2.49 pM
koff [18]: < 1e-06 s⁻¹
kon [18]: 402000 M⁻¹ s⁻¹
koff [19]: 4.65e-07 s⁻¹
Kd [20]: 0.199 pM
Substance: affinity-purified polyclonal anti-IL-6 antibody (R&D Systems AF-206-NA)
